# B1: ccpE promoter probe (ccpE_EMSA) (dsDNA)
# DNA 1: GTTAGTAATGAACTCATGAATGCTTGTGCCATGAAAGTTCAATAATTGAATAATTTATGGGG
# DNA 2: CCCCATAAATTATTCAATTATTGAACTTTCATGGCACAAGCATTCATGAGTTCATTACTAAC
# B2: gudB promoter probe (gudB_EMSA) (dsDNA)
# DNA 1: GGAAATTCAATATGTTTGAAAGCGAATCATTAGGTAAAGAAGAGGCGAAAAGGATC
# DNA 2: GATCCTTTTCGCCTCTTCTTTACCTAATGATTCGCTTTCAAACATATTGAATTTCC
# B3: ndh2 ssDNA probe (ndh2_EMSA) (ssDNA)
# DNA: GTCTTTTTTGTGAACATCACAGGTTTTTACATAATTTAAAAGACTTAAATAACAAAATGATGATAAACTAGTATA
# B4: ndh2 dsDNA, same region (dsDNA)
# DNA 1: B3 DNA
# DNA 2: TATACTAGTTTATCATCATTTTGTTATTTAAGTCTTTTAAATTATGTAAAAACCTGTGATGTTCACAAAAAAGAC
# Key:
# MsaB-His [1] = target: T1, MsaB-His (Staphylococcus aureus USA300 LAC, UniProt Q2FH36 1-66); assay: EMSA; 5 mM MgCl2, poly(dI-dC); shift reversed by 100-fold unlabeled probe; conditions: protein: recombinant; tags: 6xHis; label: biotin (5'); blunt
# T1 sequence: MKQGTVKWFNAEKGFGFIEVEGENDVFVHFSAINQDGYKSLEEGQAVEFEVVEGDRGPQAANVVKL
# MsaB-His [2] = target: T1, MsaB-His; assay: EMSA; 5 mM MgCl2, poly(dI-dC); conditions: protein: recombinant, tags: 6xHis, blunt
# MsaB-His [3] = target: T1, MsaB-His; assay: EMSA; 5 mM MgCl2, poly(dI-dC); shift reduced by 100-fold unlabeled probe; conditions: protein: recombinant; tags: 6xHis; label: biotin (5')
binder,measurement,setting,value
B1,binding result,MsaB-His [1],binds
B2,binding result,MsaB-His [2]; label: biotin (5'),no binding
B3,binding result,MsaB-His [3],binds
B4,binding result,MsaB-His [2],no binding
